In one series the test system is HAdV species C. In words: Infection assay (hexon staining), HAdV species C. The format is cell-based, human adenovirus. As to conditions: 15 µM HD5, A549 cells, hexon staining at ~48 h, vs. no defensin. The method, then: (§1) To determine whether sensitivity to α-defensins is a general property of HAdVs, serotypes representative of HAdV species A–F were tested for infectivity in the presence of 15 µM HD5 or HNP1 (Figure 1). Wild type HAdVs rather than vectors were used for these studies, and infectivity was assessed by staining for hexon production. […] These studies indicate that sensitivity to α-defensins is species specific. In addition, particular HAdV serotypes are not equally sensitive to all defensins, indicating defensin sequence specificity as well.
(§2) Figure 1 Sensitivity to neutralization by alpha-defensins is AdV species specific. HAdVs were incubated with 15 µM HD5 (A) or HNP1 (B) and assessed for infectivity on A549 cells. Data are the mean of the percent infectivity compared to control cells infected with each virus in the absence of defensin for at least three independent experiments ± SD. The upper limit for quantification of this assay is 200%. […]
(§3) Prior to use in this assay, each virus stock was titrated on A549 cells. […] In parallel, wells were infected with two-fold serial dilutions of each virus to establish a standard curve for quantification with an upper limit of 200%. […] Total well fluorescence above background was quantified with ImageJ software. For each virus, samples were quantified by nonlinear regression against the standard curve using Prism software (GraphPad Software, Inc., La Jolla, CA).

Another series has as its system HAdV-D serotypes. In words: Infection assay (hexon staining), HAdV species D. The format is cell-based, human adenovirus. The conditions noted are these: 15 µM HD5, A549 cells, hexon staining at ~48 h, vs. no defensin; upper limit 200%. On the procedure: as §1, §2, §3
A further series deals with Ad5.F35. In words: Sensitivity of Ad5.F35 to HD5. The format is cell-based, human adenovirus. As to conditions: data not shown; compared with HAdV-5 and HAdV-35.
A further series has as its system 19cPB. Description: Infection assay, 19cPB virus chimera. The format is cell-based, human adenovirus. The conditions noted are these: 5 µM and 10 µM HD5, A549 cells; at least three independent experiments; neutralized only at 10 µM.
From the text: The availability of sensitive (e.g., HAdV-5) and resistant (e.g., HAdV-19c) serotypes provided a means to test this HD5 neutralization model by generating virus chimeras. Initially, virus chimeras were constructed by replacing the sequences for fiber, penton base, and hexon in the HAdV-5 genome with the corresponding sequences from HAdV-19c. Consistent with previous studies, [38], the virus chimera containing the HAdV-19c hexon is not viable; however, constructs containing the HAdV-19c fiber (19cF) or penton base (19cPB) are capable of replicating. […] In contrast, the 19cPB virus has an intermediate phenotype.
Figure 6 Neutralization determinants are located in fiber and penton base. A) Schematic of chimeric viruses. […] B) Each of the chimeric viruses was incubated with 5 µM (grey) or 10 µM (black) HD5 and assessed for infectivity on A549 cells. […] The upper limit for quantification of this assay is 200%.
as §3

Another series relates to HAdV-7. In words: Virus-defensin binding, HAdV-7. Details: species or system human adenovirus.
The conditions of series [1]: ref [40], [44]; cited from earlier work. The source says: The extensive difference density attributable to HD5 in our cryoEM analysis of Ad5.F35+HD5 is consistent with our estimated stoichiometry. HD5 binding sites were found on all of the major proteins of the capsid. […] The accumulation of HD5 difference density was not equal among the four unique hexon positions in the asymmetric unit but rather was greatest on the peripentonal hexons. Since the possible binding sites presented by each hexon a ...

B1: HD5: human alpha-defensin; synthetic, obtained from Peptides International; three disulfide bonds (PDB 1ZMP) (peptide, UniProt Q01523 20-94, looked up)
Defensin alpha 5: ESLQERADEATTQKQSGEDNQDLAISFAGNGLSALRTSGSQARATCYCRTGRCATRESLSGVCEISGRLYRLCCR
modifications: Defensin-5
On to B1, for which the “sensitivity to neutralization (infectivity)” value is “sensitive” with HAdV species C and “completely resistant to HD5-mediated neutralization and, in most cases, infection is actually enhanced” with HAdV-D serotypes. The “sensitivity of Ad5.F35 to HD5” value in the series on Ad5.F35 is “comparable to that of HAdV-5 and HAdV-35”. Moreover, the “sensitivity to HD5 neutralization” value in the series on 19cPB was “partially neutralized by HD5 but only at the higher concentration tested (10 µM)”. Besides, in the series on HAdV-7, the “level of HD5 binding (in words)” value is given as “specific binding”. For the same molecule, the “concentration at which HD5 forms dimers and tetramers” value in series [1] is reported as “below 5 µM”.

Source of the values: article PMC2891831, “Insight into the Mechanisms of Adenovirus Capsid Disassembly from Studies of Defensin Neutralization” (PLoS Pathogens, 2010).
